Key:
[1] = target: Cutavirus (CuV) VP2, assembled as virus-like particles (cutavirus (CuV)); test: cryo-EM structure
[2] = target: CuV VP2 (CuV capsid, virus-like particle) (Cutavirus, UniProt A0A1B0VEZ1); test: glycan microarray (CFG v5.[…]), DyLight 488-labelled VLPs; type: binding; conditions: immobilised glycan; PBS/Tween-20, room temperature; weak signal, authors advise caution
[3] = target: Tusavirus (TuV) VP2, assembled as virus-like particles (tusavirus (TuV)); test: cryo-EM structure

Work on “Cutavirus (CuV) VP2, assembled as virus-like particles (natural protein)” yielded a stoichiometry N [1] of 60.
In the case of `CC(=O)N[C@H]1C(O)O[C@H](CO)[C@@H](O[C@@H]2O[C@H](CO)[C@H](O)[C@H](O)[C@H]2O)[C@@H]1O[C@@H]1O[C@@H](C)[C@@H](O)[C@@H](O)[C@@H]1O` (stereo partly drawn) [LeX], the “glycan microarray (CFG v5.2), DyLight 488-labelled VLPs” value [2] is reported as “the minimal LeX motif was weakly bound by CuV”.
“Tusavirus (TuV) VP2, assembled as virus-like particles (natural protein)” showed a stoichiometry N [3] of 60.

Reference: PMC7354515 (Viruses, 2020)
